B1: full-length human mesothelin protein (other)
chain: EVEKTACPSGKKAPEIDESLIFYKKWELEACVDAALLATQMDRVNAIPFTYEQLDVLKHKLDELYPQGYPESVIQHLGYLFLKMSPEDIRKWNVTSLETLKALLEVNKGHEMSPQVATLIDRFVKGRGQLDKDTLDTLTAFYPGYLCSLSPEELSSVPPSSIWAVRPQDLDTCDPRQLDVLYPKARLAFQNMNGSEYFVKIQSFLGGAPTEDLKALSQQNVSMDLATFMKLRTDAVLPLTVAEVQKLLGPHVEGLKAEERHRPVRDWILRQRQDDLDTLGLGLQGGIPNGYLVLDLSMQEALS
notes: also called MSLN; full-length mesothelin
B2: full-length mouse mesothelin protein (other)
chain: DAEQKACPPGKEPYKVDEDLIFYQNWELEACVDGTMLARQMDLVNEIPFTYEQLSIFKHKLDKTYPQGYPESLIQQLGHFFRYVSPEDIHQWNVTSPDTVKTLLKVSKGQKMNAQAIALVACYLRGGGQLDEDMVKALGDIPLSYLCDFSPQDLHSVPSSVMWLVGPQDLDKCSQRHLGLLYQKACSAFQNVSGLEYFEKIKTFLGGASVKDLRALSQHNVSMDIATFKRLQVDSLVGLSVAEVQKLLGPNIVDLKTEEDKSPVRDWLFRQHQKDLDRLGLGLQGGIPNGYLVLDFNVREAFS
notes: also called mMSLN; murine mesothelin

Experiments:
[1] = biological target: T1, SD1-human Fc fusion protein (human, UniProt P01857 104-330 = IgG part); experiment: ELISA on coated human mesothelin protein (FIG. 3C)
T1 construct: domain: CH2 and CH3 in the constant region of human IgG heavy chain gamma 1; also called SD1-hFc

[2] = biological target: T1, SD1-human Fc fusion protein; experiment: ELISA on coated human mesothelin protein, equilibrium constant by Prism / Scatchard
[3] = biological target: T1, SD1-human Fc fusion protein; experiment: direct ELISA, coated antigen

T1 sequence (P01857 other isoform, or with tags, fused parts or gaps limits assumed): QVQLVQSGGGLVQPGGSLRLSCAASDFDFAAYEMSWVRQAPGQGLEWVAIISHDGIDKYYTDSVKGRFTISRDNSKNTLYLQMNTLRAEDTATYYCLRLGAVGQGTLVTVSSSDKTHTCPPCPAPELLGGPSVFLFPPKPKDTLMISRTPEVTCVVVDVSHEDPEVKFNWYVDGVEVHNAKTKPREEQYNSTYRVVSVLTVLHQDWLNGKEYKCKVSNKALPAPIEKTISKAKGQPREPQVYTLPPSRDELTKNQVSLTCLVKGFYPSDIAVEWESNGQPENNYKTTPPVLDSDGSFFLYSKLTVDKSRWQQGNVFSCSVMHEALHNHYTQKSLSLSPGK

Binder	Kd [1] [µM]	Kd [2] [µM]	binding result [3]
B1	0.0136	0.0136	
B2			no binding
